No end group written: not given here.
What was measured:
[1] = tested on: mouse primary hindbrain neurons (MPHN); test: Calcium flux in primary hindbrain neurons; assay type: cell-based; conditions: MPHN treated with undercarboxylated or carboxylated osteocalcin
Experimental: For calcium imaging, primary hindbrain neurons seeded on 12 mm coverslips were allowed the appropriate time to form structural networks. These cultures were washed with HBSS and loaded with 2.5 μM FURA-2, AM calcium indicator for 45 minutes at room temperature, according to the manufacturer's protocol. Cells were then washed to remove excess indicator and incubated for 30 minutes to allow internalized esters to become de-esterified. 30 ng/ml of osteocalcin was prepared with the control buffer of 1×HBBS supplemented with 10 mM HEPES buffer and 2 mM CaCl2. Using a Zeiss microscope with a perfusion system, coverslips were first perfused with control and osteocalcin. After each stimulation, cells were depolarized with 50 mM KCl to determine the percentage of live cells being imaged. All treatments were recorded using two-photon laser scanning microscopy by Prairie Technologies and analyzed by Z axis profile plotting using ImageJ.
To determine if osteocalcin acts directly on neurons to modulate neurotransmitter synthesis, several types of assays were performed. First, brainstem and midbrain explants from WT and Gprc6a^−/− mice were generated. […] Third, to further confirm that osteocalcin signals in neurons of the hindbrain, calcium flux in MPHN treated with undercarboxylated or carboxylated osteocalcin (FIG. 3F) was measured. […]

[2] = tested on: brainstem and midbrain explants from WT and Gprc6a-/- mice; test: Gene expression (qPCR) in brainstem and midbrain explants; assay type: cell-based, mouse; conditions: leptin, WT or Gprc6a-/- brainstem explants
Experimental: For gene expression studies, RNA was isolated from primary neurons or tissue using TRIZOL® (Invitrogen). cDNA synthesis was performed following a standard protocol from Invitrogen and qPCR analyses were done using specific quantitative PCR primers from SABiosciences (www.sabiosciences.com/RT2PCR.php).
Brains were dissected and incubated for 30 minutes in ice cold oxygenated artificial cerebrospinal fluid (ACSF). Brains were then sliced at 500 μm at the midbrain, −1.55 to −2.35 mm from the bregma, and at the level of the brainstem, from −4.04 to −4.48 mm and from −4.60 to −5.20 mm from the bregma, to include the median and dorsal raphe, respectively. These slices were incubated in ACSF for 1 h, constantly oxygenated (95% 02 and 5% CO2) for 4 h, after which they were treated with either osteocalcin (10 ng/ml) or PBS for four hours. Expression of Tph2, TH, GAD1, GAD2, and Ddc was measured by qPCR.
To determine if osteocalcin acts directly on neurons to modulate neurotransmitter synthesis, several types of assays were performed. First, brainstem and midbrain explants from WT and Gprc6a^−/− mice were generated. Brains were sliced (500 μm) at the level of the median and dorsal raphe of the brainstem (from −4.04 to −4.48 mm and from −4.60 to −5.20 mm, respectively), so that they would be enriched in serotonin-producing neurons, as well as at the level of substantia nigrae and ventral tegmental areas (VTA) of the midbrain (from −1.55 to −2.35 mm and from −2.55 to −3.25 mm, respectively). Enrichment in serotoninergic and catecholaminergic neurons in these explants was verified by their high Tph2 and Th expression. While leptin, used here as a positive control, reduced, as it should, Tph2 expression in WT or Gprc6a^−/− brainstem explants, osteocalcin (3 ng/ml) increased expression of this gene 2.5 fold in both WT and Gprc6a^−/− explants. (FIG. 3D). Additionally, osteocalcin increased Th expression in midbrain explants and decreased Gad1 expression in both WT and in Gprc6a^−/− hindbrain explants (FIG. 3D). Second, the cultured WT and Gprc6a^−/− mouse primary hindbrain neurons (MPHN) were treated with osteocalcin (3 ng/ml). […] Third, to further confirm that osteocalcin signals in neurons of the hindbrain, calcium flux in MPHN treated with undercarboxylated or carboxylated osteocalcin (FIG. 3F) was measured. […] Moreover, osteocalcin inhibits the action potential frequency of the GABAergic interneurons of the hindbrain (FIG. 3H).

[3] = Positive control for blood brain barrier crossing: subcutaneous leptin infusion in ob/ob mice, content measured in brain; assay type: in vivo, mouse; conditions: subcutaneous infusion 50 ng/hour, seven days, 3 month-old ob/ob mice
Experimental: FIG. 3. Osteocalcin binds to neurons in the brain. (A) Measurement of the total osteocalcin in 3 month-old Osteocalcin^−/− mice infused subcutaneously for 7 days with either uncarboxylated osteocalcin (300 ng/hour, right panel) or PBS (left panel). Osteocalcin levels were measured in bone, serum, and different parts of the brain (cortex, midbrain, hypothalamus, brainstem, and cerebellum). (B) Subcutaneous infusion of leptin ([…], right panel) or PBS (left panel) for 7 days in ob/ob mice. Leptin levels were measured in serum, cortex, midbrain, hypothalamus, brainstem, and cerebellum. […]
Osteocalcin^−/−, Gprc6a^−/−, Osteocalcin-mCherry, and Osteocalcin floxed mice have been previously described (Ducy et al., 1996, Nature 382:448-452; Oury et al., 2011, Cell 144:796-809). Mouse genotypes were determined by PCR. […] Leptin and osteocalcin content in sera and tissues were determined by ELISA.
To understand how this behavioral phenotype develops, whether osteocalcin crosses the blood brain barrier (BBB) was tested by installing pumps that subcutaneously delivered vehicle or uncarboxylated osteocalcin (50 ng/hour) in three-month-old Osteocalcin^−/− mice. […] Seven days later, osteocalcin and leptin content were measured in blood, bone, and in various parts of the brain in Osteocalcin−/− and ob/ob mice, respectively. […]

Molecule | calcium fluxes in primary hindbrain neurons [1] | Tph2 expression in brainstem explants (positive control) [2] | leptin content in parts of the brain [3]
carboxylated osteocalcin: Carboxylated (Gla) form of osteocalcin used as comparison in the calcium flux assay (YLGASVPSPDPLEPTREQCELNPACDELSDQYGLKTAYKRIYGITI; ends and bridges not checked; also: gamma-carboxylated (Gla) form, places not given here; UniProt P86546 50-95, looked up) [reference compound] | not |  | 
leptin: adipocyte-derived hormone, positive control known to cross the BBB (protein, UniProt P41160 22-167, looked up) Leptin: VPIQKVQDDTKTLIKTIVTRINDISHTQSVSAKQRVTGLDFIPGLHPILSLSKMDQTLAVYQQVLTSLPSQNVLQIANDLENLRDLLHLLAFSKSCSLPQTSGLQKPESLDGVLEASLYSTEVVALSRLQGSLQDILQQLDVSPEC |  | reduced | could be detected in the brainstem and hypothalamus

Reference: patent US10052364B2, “Osteocalcin as a treatment for cognitive disorders” (THE TRUSTEES OF COLUMBIA UNIVERSITY IN THE CITY OF NEW YORK, priority 2013, dated 2018)
